Results on two molecules are retold here after US20080064631A1 (published 2008).

The assay has as its target T1, proteinase 3 and neutrophil elastase (PR1) peptide on HLA-A*02:01 (human).
T1 peptide: VLQELNVTV
Briefly: multimer staining. The procedure:
Briefly, from PBMC that were derived from a healthy HLA-A2+ donor, the inventor elicited bulk PR1-CTL cell lines after 4 to 6 weeks of weekly stimulations with the PR1 peptide+low dose IL-2 and IL-7 in vitro, as outlined in FIG. 1. These CTL were subsequently placed into limiting dilution culture and after an additional 14 to 20 days. The cells were expanded with anti-CD3/anti-CD28 beads+IL-2+feeder cells+IL-15 to sufficient numbers and were then tested. The PR1-CTLs were stained with PR1-CTL tetramer to confirm specificity (FIG. 2). Unique cDNA sequences from the CDR3-α and CDR3-β regions from two different PR1-specific CTL clones that were derived from an HLA-A2+ healthy individual were obtained. The inventor reported that one PR1-CTL clone (F4) bears a relatively high avidity TCR for the PR1/HLA-A2 ligand, while the other CTL clone (B12) bears a relatively low avidity TCR. These conclusions are supported with PR1/HLA-A2 tetramer binding data and with cytotoxicity assays that show F4 to have a higher tetramer staining fluorescence intensity and a lower threshold of activation than the B12 clone, respectively. TCR-αβ CDR3 nucleic acid sequence data is provided showing clonality at the molecular level.

B1: Low avidity PR1-CTL clone B12 TCR (TCR, V domains shown)
Valpha: AQSVTQPDIHITVSEGASLELRCNYSYGATPYLFWYVQSPGQGLQLLLKYFSGDTLVQGIKGFEAEFKRSQSSFNLRKPSVHWSDAAEYFCAVGGGARLMFGDGTQLVVKP
Vbeta: KAGVTQTPRYLIKTRGQQVTLSCSPISGHRSVSWYQQTPGQGLQFLSEYFSETQRNKGNFPGRFSGRQFSNPRSEMNVSTLELGDSALYLCASSGEAFYEQYFGPGTRLTVT
With B1, the binding result is recorded as “recognises”.

B2: High avidity PR1-CTL clone F4 TCR (TCR, V domains shown)
Valpha: GQNIDQPTEMTATEGAIVQINCTYQTSGFNGLFWYQQHAGEAPTFLSYNVLDGLEEKGRFSSFLSRSKGYSYLLLKELQMKDSASYLCAVSRDSGNTPLVFGKGTRLSVIA
Vbeta: DSGVTQTPKHLITATGQRVTLRCSPRSGDLSVYWYQQSLDQGLQFLIQYYNGEERAKGNILERFSAQQFPDLHSELNLSSLELGDSALYFCASSPSGTGNIQYFGAGTRLSVL
In the case of B2, the binding result is “recognises”.
